From US20160159920A1
Where “and” joins values, the source holds several entries; their conditions need not be identical. Identical values can stand only once.

Molecular target: human Leptin receptor (LepR) (human) (UniProt P48357)
Test: cell-based or functional assay

Sequence of human Leptin receptor (LepR) (human) (P48357 22-1165): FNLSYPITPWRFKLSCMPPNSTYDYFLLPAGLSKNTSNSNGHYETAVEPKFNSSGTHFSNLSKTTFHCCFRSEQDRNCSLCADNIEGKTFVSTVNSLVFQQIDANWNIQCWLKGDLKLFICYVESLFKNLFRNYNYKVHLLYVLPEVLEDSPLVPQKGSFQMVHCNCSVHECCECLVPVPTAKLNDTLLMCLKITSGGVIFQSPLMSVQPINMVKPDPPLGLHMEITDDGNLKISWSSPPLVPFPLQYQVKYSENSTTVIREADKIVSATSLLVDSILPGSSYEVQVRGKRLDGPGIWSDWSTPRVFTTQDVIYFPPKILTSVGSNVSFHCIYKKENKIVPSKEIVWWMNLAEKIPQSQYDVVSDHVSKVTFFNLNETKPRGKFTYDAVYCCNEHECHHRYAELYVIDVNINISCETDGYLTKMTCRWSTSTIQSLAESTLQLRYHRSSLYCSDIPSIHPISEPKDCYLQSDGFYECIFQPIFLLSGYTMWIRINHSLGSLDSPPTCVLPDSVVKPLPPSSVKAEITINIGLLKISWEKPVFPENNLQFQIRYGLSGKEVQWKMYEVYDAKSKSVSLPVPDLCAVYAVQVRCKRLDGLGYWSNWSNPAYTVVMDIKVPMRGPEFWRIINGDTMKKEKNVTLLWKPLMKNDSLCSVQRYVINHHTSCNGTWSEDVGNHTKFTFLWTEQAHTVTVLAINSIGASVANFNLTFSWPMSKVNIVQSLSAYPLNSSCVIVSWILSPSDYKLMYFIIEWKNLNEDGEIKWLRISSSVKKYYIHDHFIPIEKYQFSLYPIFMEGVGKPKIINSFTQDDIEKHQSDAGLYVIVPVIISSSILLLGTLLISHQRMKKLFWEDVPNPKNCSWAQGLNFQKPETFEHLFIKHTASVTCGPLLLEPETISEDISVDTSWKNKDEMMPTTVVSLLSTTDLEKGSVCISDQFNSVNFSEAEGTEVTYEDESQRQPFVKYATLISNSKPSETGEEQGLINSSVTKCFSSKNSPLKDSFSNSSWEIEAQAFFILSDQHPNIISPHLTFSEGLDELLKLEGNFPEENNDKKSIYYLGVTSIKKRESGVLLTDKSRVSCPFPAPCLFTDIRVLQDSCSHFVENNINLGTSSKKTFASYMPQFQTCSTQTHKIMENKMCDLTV

- EC50, AlamarBlue proliferation of Baf3 stable cells overexpressing LepR: 129 ρM and 58.2 ρM
Substance: hLeptin (SEQ ID NO: 238) (from UniProt P41159 22-167) (ligand)
